# Results reported in US20120058906A1 (published 2012).
# T1: rHuman Erythropoietin R/Fc Chimera, CF (R&D Systems Cat#963-ER) (human, UniProt P19235 25-250)
# T1 construct: Bought Fc chimera; also called EPO R/Fc; EPOR; Fc part of the bought chimera not given
# T1 sequence: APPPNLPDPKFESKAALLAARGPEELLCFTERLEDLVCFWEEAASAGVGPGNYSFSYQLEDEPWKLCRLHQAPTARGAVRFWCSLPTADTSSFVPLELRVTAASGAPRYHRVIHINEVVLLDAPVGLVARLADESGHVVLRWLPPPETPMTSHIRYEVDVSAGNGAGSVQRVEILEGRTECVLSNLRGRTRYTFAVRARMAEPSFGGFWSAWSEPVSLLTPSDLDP
# T2: rHuman Erythropoietin R/Fc Chimera, CF (R&D Systems Cat#963-ER) (human, UniProt P19235 25-250)
# T2 construct: Bought Fc chimera; also called EPO R/Fc; Epo R; not shown: Fc of the bought chimera
# T2 sequence: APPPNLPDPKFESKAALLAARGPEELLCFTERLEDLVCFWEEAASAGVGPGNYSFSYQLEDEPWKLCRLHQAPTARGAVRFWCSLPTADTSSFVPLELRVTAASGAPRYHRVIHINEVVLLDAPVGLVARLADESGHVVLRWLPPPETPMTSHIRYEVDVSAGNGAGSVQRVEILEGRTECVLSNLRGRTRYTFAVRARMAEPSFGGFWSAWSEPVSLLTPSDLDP
# T3: rHuman Erythropoietin R/Fc Chimera, CF (R&D Systems Cat#963-ER) (human, UniProt P19235 25-250)
# T3 construct: Purchased Fc chimera; also called EPO R/Fc; Epo R; not shown: Fc portion of the purchased chimera
# T3 sequence: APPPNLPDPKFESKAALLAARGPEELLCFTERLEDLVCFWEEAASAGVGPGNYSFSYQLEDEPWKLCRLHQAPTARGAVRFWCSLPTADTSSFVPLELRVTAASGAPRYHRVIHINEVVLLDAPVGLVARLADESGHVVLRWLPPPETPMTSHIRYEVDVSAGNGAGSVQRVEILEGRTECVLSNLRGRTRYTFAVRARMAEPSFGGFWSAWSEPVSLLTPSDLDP
# Legend:
# [1] = target: T4, rHuman Notch-1/Fc Chimera, CF (R&D Systems Cat#3647-TK) (human, UniProt P46531 19-526); test: MSD ECL titration, Fab 2383 nM, blank 344;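 also: blank spot per well as comparator with Hit at signal to blank ratio of 4 or more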
# T4 construct: Bought Fc chimera; Fc part of the bought chimera not given
# [2] = target: T5, rHuman CD44/Fc Chimera, CF (R&D Systems Cat#3660-CD) (human, UniProt P16070 21-220); test: MSD ECL titration, Fab 2383 nM, blank 344;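 also: blank spot per well as comparator with Hit at signal to blank ratio of 4 or more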
# T5 construct: Bought Fc chimera; Fc part of the bought chimera not given
# [3] = target: T6, rHuman IGF-1 sR (insulin-like growth factor-1 soluble receptor), CF (R&D Systems Cat#391-GR) (human, UniProt P08069 31-932); test: MSD ECL titration, Fab 2383 nM, blank 344;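 also: blank spot per well as comparator with Hit at signal to blank ratio of 4 or more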
# T6 construct: Bought soluble receptor; also called IGF-R1
# [4] = target: T7, rHuman P-Cadherin/Fc Chimera, CF (R&D Systems Cat#861-PC) (human, UniProt P22223 108-654); test: MSD ECL titration, Fab 2383 nM, blank 344;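 also: blank spot per well as comparator with Hit at signal to blank ratio of 4 or more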
# T7 construct: Bought Fc chimera; Fc part of the bought chimera not given
# [5] = target: T1, rHuman Erythropoietin R/Fc Chimera, CF …; test: MSD ECL titration, Fab 2383 nM, blank 344;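 also: blank spot per well as comparator with Hit at signal to blank ratio of 4 or more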
# [6] = target: T8, Recombinant Human DLL4 (R&D Systems Cat#1506-D4/CF) (human, UniProt Q9NR61 27-524); test: MSD ECL titration, Fab 2383 nM, blank 344;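 also: blank spot per well as comparator with Hit at signal to blank ratio of 4 or more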
# T8 construct: Bought recombinant protein; also called rHuman DLL4; delta-like protein 4
# [7] = target: T9, rHuman ErbB2/Fc Chimera, CF (R&D Systems Cat#1129-ER) (human, UniProt P04626 23-652); test: MSD ECL titration, Fab 2383 nM, blank 344
# T9 construct: Bought Fc chimera; also called HER2/neu; Fc part of the bought chimera not given
# [8] = target: T10, rHuman EGF R/Fc Chimera, CF (R&D Systems Cat#344-ER) (human, UniProt P00533 25-645); test: MSD ECL titration, Fab 2383 nM, blank 344
# T10 construct: Bought Fc chimera; Fc part of the bought chimera not given
# [9] = target: T11, rHuman HGF R/c-MET/Fc Chimera, CF (R&D Systems Cat#358-MT/CF) (human, UniProt P08581 25-932); test: MSD ECL titration, Fab 2383 nM, blank 344
# T11 construct: Bought Fc chimera; also called HGF R/Fc; Fc part of the bought chimera not given
# [10] = target: T2, rHuman Erythropoietin R/Fc Chimera, CF …; test: ECL (MSD multi-spot), antigen on plate, Fab 0.5 nM
# [11] = target: T12, rHuman CD44/Fc Chimera, CF (R&D Systems Cat#3660-CD) (human, UniProt P16070 21-220); test: ECL (MSD multi-spot), antigen on plate, Fab 0.5 nM
# T12 construct: Bought Fc chimera; not shown: Fc of the bought chimera
# [12] = target: T13, rHuman IGF-1 sR (IGF-1 sR), CF (R&D Systems Cat#391-GR) (human, UniProt P08069 31-932); test: MSD ECL multi-spot plate, antigen immobilized; Fab 0.32 nM; blank spot 513;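 also: blank spot per well as comparator with Hit at signal to blank ratio of 4 or more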
# T13 construct: Purchased soluble receptor; also called insulin-like growth factor-1 soluble receptor; IGF-R1
# [13] = target: T3, rHuman Erythropoietin R/Fc Chimera, CF …; test: as above
# [14] = target: T14, Recombinant Human DLL4 (R&D Systems Cat#1506-D4/CF) (human, UniProt Q9NR61 27-524); test: as above
# T14 construct: Purchased recombinant protein; also called delta-like protein 4
# [15] = target: T15, rHuman ErbB2/Fc Chimera, CF (R&D Systems Cat#1129-ER) (human, UniProt P04626 23-652); test: as above
# T15 construct: Purchased Fc chimera; also called HER2/neu; not shown: Fc portion of the purchased chimera
# [16] = target: T16, rHuman EGF R/Fc Chimera, CF (R&D Systems Cat#344-ER) (human, UniProt P00533 25-645); test: as above
# T16 construct: Purchased Fc chimera; not shown: Fc portion of the purchased chimera
# [17] = target: T17, rHuman HGF R/c-MET/Fc Chimera, CF (R&D Systems Cat#358-MT/CF) (human, UniProt P08581 25-932); test: as above
# T17 construct: Purchased Fc chimera; also called HGF R/Fc; not shown: Fc portion of the purchased chimera
# [18] = target: T18, rHuman Notch-1/Fc Chimera, CF (R&D Systems Cat#3647-TK) (human, UniProt P46531 19-526); test: as above
# T18 construct: Purchased Fc chimera; not shown: Fc portion of the purchased chimera
# [19] = target: T19, rHuman CD44/Fc Chimera, CF (R&D Systems Cat#3660-CD) (human, UniProt P16070 21-220); test: as above
# T19 construct: Purchased Fc chimera; not shown: Fc portion of the purchased chimera
binder,measurement,setting,value
"Fab VH1-46_IGHD6-6*01_IGHJ1*01 & L6_IGKJ1*01 (Fab, V domains shown, Expressed in E. coli as Fab: heavy chain with CH1 plus Flag and His tags from Plasmid A, kappa light chain constant region from Plasmid C; also called Fab No. 1) VH: QVQLVQSGAEVKKPGASVKVSCKASGYTFTSYYMHWVRQAPGQGLEWMGIINPSGGSTSYAQKFQGRVTMTRDTSTSTVYMELSSLRSEDTAVYYCAREEYSSSSAEYFQHWGQGTLVTVSS VL: not shown",ECL signal,[1],690
same,ECL signal,[2],559
same,ECL signal,[3],527
same,ECL signal,[4],728
same,ECL signal,[5],658
same,ECL signal,[6],11800
same,ECL signal,[7],454
same,ECL signal,[8],621
same,ECL signal,[9],762
"Fab VH1-46_IGHD6-6*01_IGHJ1*01_S102A_S103P_S104Y_H111Y & L6_IGKJ1*01 (Fab, V domains shown, Fab made in E. coli; The heavy chain also carries CH1 with Flag and His tags from Plasmid A, and the light chain carries kappa CL from Plasmid C) VH: QVQLVQSGAEVKKPGASVKVSCKASGYTFTSYYMHWVRQAPGQGLEWMGIINPSGGSTSYAQKFQGRVTMTRDTSTSTVYMELSSLRSEDTAVYYCAREEYAPYSAEYFQYWGQGTLVTVSS VL: not shown",ECL signal,[10],1840 ECL signal
same,ECL signal,[11],1560 ECL signal
"Fab VH5-51_IGHD5-18*01>3_IGHJ4*01_G100R & V3-4_IGLJ1*01 (Fab, V domains shown, It was expressed as a Fab: CH1 with tags from Plasmid A and lambda CL from Plasmid E; also called Fab No. 23) VH: EVQLVQSGAEVKKPGESLKISCKGSGYSFTSYWIGWVRQMPGKGLEWMGIIYPGDSDTRYSPSFQGQVTISADKSISTAYLQWSSLKASDTAMYYCARRRYSYGYDYFDYWGQGTLVTVSS VL: QTVVTQEPSFSVSPGGTVTLTCGLSSGSVSTSYYPSWYQQTPGQAPRTLIYSTNTRSSGVPDRFSGSILGNKAALTITGAQADDESDYYCVLYMGSGISYVFGTGTKVTVL",ECL signal,[12],1250 ECL signal
same,ECL signal,[13],851 ECL signal
same,ECL signal,[14],1210 ECL signal
same,ECL signal,[15],1480 ECL signal
same,ECL signal,[16],1220 ECL signal
same,ECL signal,[17],1290 ECL signal
same,ECL signal,[18],983 ECL signal
same,ECL signal,[19],877 ECL signal
